# In patent US20220041683A1 (published 2022):
# Where no end group is shown, it is not given here.
# B1: Fc-A22p (Fc fusion, not shown: a dimerising Fc or GST; small tags and cut ends)
# chain: HTPGNSNKWKHLQENKKGRPRR
# modifications: not fully specified (N-terminus); also: fused C-terminal to Fc (hinge-CH2-CH3), isotype and sequence not given here, linker not given here
# B2: Fc-TPP8 (Fc fusion, not shown: a dimerising Fc or GST; small tags and cut ends)
# chain: GGGGSGGGGSGGGGSHTPGIATRTPR
# modifications: not fully specified (N-terminus); also: Fc fusion, Fc not in chain, disulfide-linked Fc dimer
# B3: Fc-TPP1 (Fc fusion)
# chain: GGGGSGGGGSGGGGSHTPGNSNQFVLTSTRPPR
# modifications: not fully specified (N-terminus); also: Fc fusion, peptide at end of CH3, Fc not in chain, disulfide-linked Fc dimer
# notes: Disulfide-linked dimer, peptide fused to the end of CH3 by a (G4S)3 linker; expressed in HEK293-F; also called Fc-TPP1 fusion protein; Fc-TPP1 protein; not shown: Antibody heavy-chain constant region Fc (hinge-CH2-CH3)
# Key:
# [1] = target: NRP2-b1b2 (275-595) protein (UniProt O60462); assay: SPR; KD on NRP2-b1b2 divided by KD on NRP1-b1b2
# [2] = target: NRP2-b1b2 (275-595) protein (UniProt O60462); assay: SPR (Biacore 2000), NRP2-b1b2 immobilised on CM5
# [3] = target: NRP1-b1b2 (273-586) protein (UniProt O14786); assay: SPR (Biacore 2000), NRP1-b1b2 immobilised on CM5
# [4] = target: T1, NRP1 displayed on the human umbilical vein endothelial cell (HUVEC) surface (human, UniProt O14786 22-923); assay: confocal microscopy on HUVEC
# T1 construct: whole, on cells; Endogenous NRP1 of human cells; also called NRP1 on the HUVEC cell surface
# Experimental: Specifically, 5×10⁴ HUVEC cells were added to each well of a 24-well plate and incubated in 0.5 ml of EGM2 (Endothelial growth medium, Promocell) medium for 24 hours under the conditions of 5% CO₂ and 37° C. […] Next, the medium was removed, and each well was washed with cold PBS. […] The nucleus was stained (blue fluorescence) with DAPI and analyzed by confocal microscopy.
# [5] = target: NRP1-b1b2 (273-586) protein (UniProt O14786); assay: ELISA on immobilised NRP1-b1b2, reference Fc-TPP11
# Sequence of NRP2-b1b2 (275-595) protein (O60462 275-595 limits assumed, form in doubt): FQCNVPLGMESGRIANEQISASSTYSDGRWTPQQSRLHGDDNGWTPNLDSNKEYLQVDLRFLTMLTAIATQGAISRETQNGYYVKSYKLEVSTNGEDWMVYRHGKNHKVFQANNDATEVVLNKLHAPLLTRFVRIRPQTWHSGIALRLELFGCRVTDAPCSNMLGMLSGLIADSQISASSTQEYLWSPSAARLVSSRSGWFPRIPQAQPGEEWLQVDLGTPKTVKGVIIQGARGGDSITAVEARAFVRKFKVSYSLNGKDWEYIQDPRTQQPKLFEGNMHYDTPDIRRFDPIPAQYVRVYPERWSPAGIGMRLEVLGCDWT
Binder,Binding Affinity Ratio [(KD for NRP2)/KD for NRP1)] [1],Kd [2] [µM],Kd [3] [µM],binding result [4],fold lower affinity than Fc-TPP11 [5] [fold]
B1,0.98,0.062,–,–,–
B2,65.8,0.254,0.00385,–,–
B3,625,1.13,0.00181,binds,–
"HTPGNSKPTRTPRR (also: biotinylated for ELISA, position not given here) [synthetic peptide TPP11 not fused to Fc]",–,–,–,–,100
